Test results as given in publication PMC11330416.
pKd: −log10 of the molar value. Values joined by “and” are separate entries in the source; they are usually repeats but may differ in a detail not shown here. Equal entries are not always repeated.

Columns and labels:
[1] = target: SARS-CoV-2 Omicron BA.4/5 spike protein reference material OMIC-1 (SARS-CoV-2 (Omicron BA.4/BA.5) | human) (UniProt P0DTC2); assay: SEC-MALS; Waters BEH SEC 4.6 x 150 mm column (200 A for ACE2-1, 450 A for OMIC-1), DPBS with 0.02% Tween-20, pH 7.4, 0.4 mL/min; UV at 280 nm, MALS and RI detection; relative amounts of species from SEC-UV
[2] = target: biotinylated human angiotensin-converting enzyme 2 reference material ACE2-1 (human) (UniProt Q9BYF1); assay: SPR; ACE2-1 immobilised by its biotin on streptavidin on a biotin-coated Au chip (250-300 RU), blocked with 10 uM BSA; spike analyte in a twofold series of 12.5-200 nM at 50 uL/min, about 90 s association, 30-45 min dissociation; 10 mM HEPES pH 7-7.4, 150 mM NaCl, 3 mM EDTA, 0.05% Tween-20; 1:1 binding model; averages of two independent experiments
Chain of biotinylated human angiotensin-converting enzyme 2 reference material ACE2-1 (human) (Q9BYF1 20-614): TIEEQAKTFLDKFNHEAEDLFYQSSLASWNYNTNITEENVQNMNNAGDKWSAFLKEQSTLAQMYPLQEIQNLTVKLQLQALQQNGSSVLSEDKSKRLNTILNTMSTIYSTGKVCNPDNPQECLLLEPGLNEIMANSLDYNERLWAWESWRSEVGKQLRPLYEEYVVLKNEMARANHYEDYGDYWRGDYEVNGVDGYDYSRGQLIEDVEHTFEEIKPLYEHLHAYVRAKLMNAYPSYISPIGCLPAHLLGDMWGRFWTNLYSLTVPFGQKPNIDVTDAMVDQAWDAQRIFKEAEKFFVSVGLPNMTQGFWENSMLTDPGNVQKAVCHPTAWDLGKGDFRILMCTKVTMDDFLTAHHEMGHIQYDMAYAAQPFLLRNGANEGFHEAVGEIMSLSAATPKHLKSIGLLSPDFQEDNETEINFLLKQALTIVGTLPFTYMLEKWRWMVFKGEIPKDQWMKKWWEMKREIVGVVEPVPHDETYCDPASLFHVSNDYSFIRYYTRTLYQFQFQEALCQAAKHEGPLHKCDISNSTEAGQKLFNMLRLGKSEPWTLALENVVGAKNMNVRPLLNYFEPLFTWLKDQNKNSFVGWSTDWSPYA

“SARS-CoV-2 Omicron BA.4/5 spike protein reference material OMIC-1 (from UniProt P0DTC2 14-1213)” was tested, and the percent in higher molecular weight oligomers (SEC-UV) [1] was 14%, the percent in the trimeric form (SEC-UV) [1] was 82% and the stoichiometry N [1] was 3 and 6. It also gave a pKd [2] of 8.36.
